Data taken from patent US20120258041A1 (published 2012).
Each block holds one molecule with its values, some of them ahead of it.

Assays:
human iC3b (human) = human iC3b (human) (UniProt P01024); test: sandwich ELISA: chicken anti-C3 capture antibody, captured antigen, A209 as detecting antibody, goat anti-mouse-HRP, ABTS
murine iC3b = target: T1, murine iC3b (mouse, UniProt P01027 25-1663, limits assumed); test: sandwich ELISA: rat mAb 2/11 (anti-mouse C3b/iC3b/C3c) capture, mouse serum 1:25 as antigen source, biotinylated antibody, streptavidin-HRP, ABTS, read at 405 nm
T1 construct: Native material from a mixture of two mouse sera; the capture antibody also takes C3b and C3c; also called mouse iC3b
T1 sequence (P01027 25-1663 limits assumed): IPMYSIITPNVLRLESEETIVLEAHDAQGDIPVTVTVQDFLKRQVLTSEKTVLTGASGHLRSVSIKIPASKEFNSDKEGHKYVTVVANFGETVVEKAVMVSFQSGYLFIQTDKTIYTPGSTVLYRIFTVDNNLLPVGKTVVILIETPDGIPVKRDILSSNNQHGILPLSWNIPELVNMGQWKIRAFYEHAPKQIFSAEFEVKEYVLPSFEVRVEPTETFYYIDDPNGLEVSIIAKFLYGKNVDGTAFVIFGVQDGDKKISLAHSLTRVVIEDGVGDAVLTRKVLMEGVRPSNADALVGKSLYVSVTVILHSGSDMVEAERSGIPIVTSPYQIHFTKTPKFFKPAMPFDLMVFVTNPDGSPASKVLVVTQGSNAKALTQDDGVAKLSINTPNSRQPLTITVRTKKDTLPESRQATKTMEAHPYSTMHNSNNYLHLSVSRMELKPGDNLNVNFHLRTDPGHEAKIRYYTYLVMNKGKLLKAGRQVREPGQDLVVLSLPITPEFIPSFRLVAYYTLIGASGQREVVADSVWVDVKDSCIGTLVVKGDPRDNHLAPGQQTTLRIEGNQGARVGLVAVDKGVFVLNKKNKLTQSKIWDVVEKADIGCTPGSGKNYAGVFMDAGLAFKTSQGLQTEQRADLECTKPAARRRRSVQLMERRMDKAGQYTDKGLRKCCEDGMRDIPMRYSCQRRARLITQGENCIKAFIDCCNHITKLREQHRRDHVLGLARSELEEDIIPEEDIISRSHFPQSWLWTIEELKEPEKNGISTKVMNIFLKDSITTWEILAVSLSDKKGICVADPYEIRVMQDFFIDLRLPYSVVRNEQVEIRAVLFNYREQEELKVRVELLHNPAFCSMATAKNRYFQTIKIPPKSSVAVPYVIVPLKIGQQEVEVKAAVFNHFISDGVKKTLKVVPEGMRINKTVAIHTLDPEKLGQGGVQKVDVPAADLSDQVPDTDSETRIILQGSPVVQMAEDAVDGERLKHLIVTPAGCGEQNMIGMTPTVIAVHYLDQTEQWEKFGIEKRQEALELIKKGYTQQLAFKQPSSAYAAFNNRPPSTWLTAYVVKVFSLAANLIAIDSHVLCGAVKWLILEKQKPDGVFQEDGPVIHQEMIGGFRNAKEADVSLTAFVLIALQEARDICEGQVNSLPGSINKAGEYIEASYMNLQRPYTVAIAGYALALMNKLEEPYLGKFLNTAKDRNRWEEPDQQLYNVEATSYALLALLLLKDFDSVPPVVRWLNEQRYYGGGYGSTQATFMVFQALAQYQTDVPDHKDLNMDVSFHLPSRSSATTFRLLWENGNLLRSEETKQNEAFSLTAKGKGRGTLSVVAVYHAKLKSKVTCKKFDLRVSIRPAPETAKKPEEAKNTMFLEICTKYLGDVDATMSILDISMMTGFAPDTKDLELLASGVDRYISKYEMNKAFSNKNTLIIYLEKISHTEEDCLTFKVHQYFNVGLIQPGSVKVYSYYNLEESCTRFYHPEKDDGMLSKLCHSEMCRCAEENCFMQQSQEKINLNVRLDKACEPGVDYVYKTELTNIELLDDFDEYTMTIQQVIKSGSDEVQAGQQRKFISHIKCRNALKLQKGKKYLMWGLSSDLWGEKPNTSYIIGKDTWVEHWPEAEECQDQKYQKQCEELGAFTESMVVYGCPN

human iC3b (human), sequence (P01024 23-667 limits assumed, chain 1 of 3): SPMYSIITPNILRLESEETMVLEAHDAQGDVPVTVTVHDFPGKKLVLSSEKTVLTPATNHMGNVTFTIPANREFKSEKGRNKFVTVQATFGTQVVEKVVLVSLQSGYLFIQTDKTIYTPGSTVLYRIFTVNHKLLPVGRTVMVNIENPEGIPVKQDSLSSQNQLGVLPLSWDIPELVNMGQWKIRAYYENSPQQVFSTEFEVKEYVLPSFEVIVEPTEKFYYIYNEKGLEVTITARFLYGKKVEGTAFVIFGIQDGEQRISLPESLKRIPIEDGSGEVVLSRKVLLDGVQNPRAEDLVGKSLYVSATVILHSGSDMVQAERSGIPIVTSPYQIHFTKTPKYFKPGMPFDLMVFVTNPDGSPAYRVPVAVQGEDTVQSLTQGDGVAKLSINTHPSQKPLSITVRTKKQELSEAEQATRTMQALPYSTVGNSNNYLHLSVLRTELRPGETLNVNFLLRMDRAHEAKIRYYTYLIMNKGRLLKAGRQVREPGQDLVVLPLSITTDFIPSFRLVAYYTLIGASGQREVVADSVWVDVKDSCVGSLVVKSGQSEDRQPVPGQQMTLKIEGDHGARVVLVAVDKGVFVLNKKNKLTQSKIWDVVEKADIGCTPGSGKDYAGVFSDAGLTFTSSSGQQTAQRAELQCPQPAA
human iC3b (human), sequence (P01024 749-1303 limits assumed, chain 2 of 3): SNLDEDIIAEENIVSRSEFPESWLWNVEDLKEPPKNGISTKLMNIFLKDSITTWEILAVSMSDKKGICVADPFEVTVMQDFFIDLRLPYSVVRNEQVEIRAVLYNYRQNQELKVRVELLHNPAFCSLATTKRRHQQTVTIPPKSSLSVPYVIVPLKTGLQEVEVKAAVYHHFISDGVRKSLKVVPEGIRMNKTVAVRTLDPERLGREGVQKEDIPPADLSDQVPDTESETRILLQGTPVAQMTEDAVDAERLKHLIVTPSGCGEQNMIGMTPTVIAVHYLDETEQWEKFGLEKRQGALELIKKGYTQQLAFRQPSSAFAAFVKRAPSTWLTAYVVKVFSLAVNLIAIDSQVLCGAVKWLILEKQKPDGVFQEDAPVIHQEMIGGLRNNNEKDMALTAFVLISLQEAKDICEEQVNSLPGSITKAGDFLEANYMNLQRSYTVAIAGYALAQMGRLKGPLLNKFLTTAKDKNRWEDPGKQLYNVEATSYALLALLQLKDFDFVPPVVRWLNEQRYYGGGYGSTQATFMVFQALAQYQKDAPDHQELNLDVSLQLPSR
human iC3b (human), sequence (P01024 1321-1663 limits assumed, chain 3 of 3): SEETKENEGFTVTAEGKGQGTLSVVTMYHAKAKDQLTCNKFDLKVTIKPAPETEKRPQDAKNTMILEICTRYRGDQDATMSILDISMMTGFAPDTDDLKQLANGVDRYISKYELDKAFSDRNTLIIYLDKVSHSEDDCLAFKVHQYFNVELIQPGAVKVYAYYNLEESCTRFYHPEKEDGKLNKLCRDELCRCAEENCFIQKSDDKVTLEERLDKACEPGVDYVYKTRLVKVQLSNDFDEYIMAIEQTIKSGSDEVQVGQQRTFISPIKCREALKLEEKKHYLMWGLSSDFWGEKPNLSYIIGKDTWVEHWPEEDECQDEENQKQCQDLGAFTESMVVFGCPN

- EC50 (read off the curve) (human iC3b (human)): 0.03 µg/mL
Molecule: A209 antibody (Quidel), mouse anti-human iC3b monoclonal antibody

- EC50 (read off the curve) (murine iC3b): ~20 nM
B1: mouse monoclonal antibody 5D2 (antibody, V domains shown)
VH: EVQLQQSGPELVKPGASVKISCKASGYTFTDNYYMNWVKQSHGKSLEWIGHIYPNNGVTSYNQKFRGKATLTVDKSSNSAYMELRSLTSEDSALYYCARNKLLSLYWYFDVWGTGTSVTVSS
VL: DIQMTQSSSSFSVFLGDRITITCRASVDIYNRLAWFQQKPGNAPRLLISGATSLATGVPSRFSGSGSGKDYTLSITSLQTEDVTIYYCQQYWSTPWTFGGGTKLEIKR
